The text below walks through data of US7192728B2, “Screening assays for agents that alter inhibitor of apoptosis (IAP) protein regulation of caspase activity” (The Burnham Institute, priority 1997, dated 2007).

In experiment [1] the test system is HeLa cell nuclei in cytosolic extract. The experiment is described as follows: Apoptosis of isolated nuclei in cell-free system (cytochrome c/dATP). The note with it: 0.4 μM protein with 10 μM cytochrome c and 1 mM dATP; 37° C., 60 min; baseline about 15%, cytochrome c/dATP alone >95%. As to the method: (§1) Cells were washed with ice cold buffer A (20 mM Hepes (pH 7.5), 10 mM KCl, 1.5 mM MgCl2, 1 mM EDTA, 1 mM DTT and 0.1 mM PMSF) and suspended in 1 vol buffer A, then incubated on ice for 20 min. 293 cells were disrupted by passage 15× through a 26 gauge needle and Jurkat T cells were disrupted by dounce homogenization in 2 ml using 15 strokes with a pestle B. Cell extracts (10–15 mg total protein/ml) were clarified by centrifugation at 16,000×g for 30 min, then the NaCl concentration was increased by 50 mM. Cytosolic fractions were used immediately or stored frozen at −80° C.
Isolated nuclei were prepared from HeLa cells (Martin et al., supra, 1995). Approximately 5×10^4 to 1×10^5 nuclei were added to 20 μl cytosolic extract and apoptosis was initiated by adding 10 μM horse heart cytochrome c (Sigma, Inc.; St. Louis Mo.) and 1 mM dATP, alone (positive control) or with cytochrome c, dATP and either 0.4 μM GST-XIAP or 0.4 μM GST-Bcl-2. Following incubation at 37° C. for 60 min., nuclei were stained with 1 μg/ml of acridine orange and ethidium bromide and the percentage nuclei with apoptotic features, including extremely condensed chromatin and the genesis of fragmentation of nuclei, was determined.

Experiment [2] deals with DEVD-pNA hydrolysis activity in 293 cell cytosolic extracts. The experiment is described as follows: Cytochrome c/dATP-induced caspase activation (DEVD hydrolysis) in 293 cell cytosolic extracts. The format is biochemical, human. The note with it: for DEVD-pNA hydrolysis, ΔA405 after 15 min: 293 extracts + cytochrome c/dATP, GST-XIAP 0.2 μM, GST controls 2 μM, His6-S5a 5 μM, untreated ≈0.01; for DEVD hydrolysis in activated 293 cell cytosolic extracts (in words): 3 μM, extracts activated 30 min with cytochrome c and dATP. How it is done: as §1
(§2) Caspase activity was assayed by release of either 7-amino-4-trifluoromethyl-coumarin (AFC) or p-nitroanilide (pNA) from benzylyoxycarbonyl-DEVD (SEQ ID NO: 2) or benzylyoxycarbonyl-YVAD (SEQ ID NO: 3) synthetic peptides using a Molecular Devices Spectromax 340 for AFC labeled peptides or Perkin/Elmer LS50B for pNA labeled peptides (see Example II; see, also, Zhou et al., supra, 1997). Cytosolic extracts from 293 cells or Jurkat T cells were used directly (negative control) or were treated with 1 μM cytochrome c and 1 mM dATP or with cytochrome c, dATP and 0.2 μM GST-XIAP. Additional control reactions were performed by substituting 2 μM GST-Bcl-2, GST-Bax, GST-NM23 or GST-CD40 cytosolic domain, or 5 μM His6-S5a protein for GST-XIAP. DEVD-pNA hydrolysis was measured at various times and multiple experiments were performed using several different GST-XIAP preparations.

Experiment [3] relates to DEVD-pNA hydrolysis activity in Jurkat T cell cytosolic extracts. In words: Cytochrome c/dATP-induced caspase activation (DEVD-pNA hydrolysis) in Jurkat T cell cytosolic extracts. The format is biochemical. As to conditions: for DEVD-pNA hydrolysis, ΔA405 after 15 min: untreated ≈0.02; for DEVD-pNA hydrolysis, ΔA405 after 20 min: untreated ≈0.025. How it is done: as §1, §2

The subject of a further experiment is 293T cells. In words: Bax-induced apoptosis and caspase activation in transfected 293T cells. Type of experiment: cell-based, human. As to conditions: 24 hr; Bax alone about 25%; zVAD-fmk 50 μM. How it is done:
N-benzyloxycarbonyl-Val-Ala-Asp fluoromethylketone (zVAD-fmk; 50 μM) (Bachem Calif.; Torrance, Calif.) was added immediately after transfection of the Bax plasmid. Transfection efficiency was uniformly 80–90%, as determined by X-Gal staining following cotransfection with pCMV-βGal.
Cells were maintained in culture for 24 hr, then floating and attached cells were harvested and an aliquot was removed and the percent of dead cells was determined by either trypan blue or propidium iodide (PI) dye exclusion assay. A second aliquot was used to assess the percentage of apoptotic cells with subdiploid DNA content by FACS analysis of PI stained, ethanol fixed cells. The remaining cell pellets were lysed in 10 mM HEPES (pH 7.5), 142 mM KCl, 1 mM EGTA, 1 mM DTT, 0.2% NP-40, 0.1 mM PMSF and used for immunoblot analysis or for protease assays.

For experiment [4], the target named is T1, caspase-3 (Homo sapiens, UniProt P42574).
T1 construct: to produce the 17–20 kDa mature, fully processed large subunit of the active caspase-3 enzyme; a smaller, fully processed, subunit of about 11 kDa; His6; made in house; host or cells: E. coli BL21(DE3)pLysS
T1 sequence (P42574 29-175 limits assumed): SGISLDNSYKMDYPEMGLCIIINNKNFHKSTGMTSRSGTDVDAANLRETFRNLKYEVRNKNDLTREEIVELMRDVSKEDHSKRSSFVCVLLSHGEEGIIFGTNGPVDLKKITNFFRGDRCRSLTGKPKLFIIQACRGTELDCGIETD
T1 sequence (P42574 176-277 limits assumed): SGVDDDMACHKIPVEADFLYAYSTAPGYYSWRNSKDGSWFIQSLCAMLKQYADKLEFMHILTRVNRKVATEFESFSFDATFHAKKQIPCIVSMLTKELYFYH
In words: GST pull-down binding to caspase-3. The note with it: glutathione-Sepharose beads, immunoblot. As to the method:
(§3) Following incubation at 4° C. for 60 min, the beads were removed by centrifugation and washed twice with 100 vol 50 mM Tris (pH 7.5), 150 mM KCl, 2 mM DTT and 0.025% Triton-X100, then subjected to SDS-PAGE and immunoblot assay (see Example I.B.3).
In general terms: A western blot detects proteins with antibodies after separation by electrophoresis.

Experiment [5] deals with T2, caspase-7 (Homo sapiens, UniProt P55210).
T2 construct: Purified active caspase concentrations ranged from 0.1 nM to 10 nM; His6; made in house; host or cells: E. coli BL21(DE3)pLysS
T2 sequence (P55210 24-198 limits assumed): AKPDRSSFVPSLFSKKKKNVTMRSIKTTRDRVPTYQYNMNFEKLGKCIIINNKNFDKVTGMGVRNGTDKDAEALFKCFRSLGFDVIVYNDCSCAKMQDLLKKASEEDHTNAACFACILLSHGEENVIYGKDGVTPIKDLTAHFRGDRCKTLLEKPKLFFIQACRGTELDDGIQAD
T2 sequence (P55210 207-303 limits assumed): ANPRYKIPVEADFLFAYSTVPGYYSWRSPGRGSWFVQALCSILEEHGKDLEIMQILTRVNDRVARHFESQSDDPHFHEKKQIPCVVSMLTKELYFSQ
The experiment is described as follows: GST pull-down binding to caspase-7. As to conditions: glutathione-Sepharose beads, immunoblot. As to the method: as §3

In experiment [6] the target is T1, caspase-3. The experiment is described as follows: Inhibition of purified recombinant caspase-3, DEVD substrate hydrolysis and progress curves. Type of experiment: biochemical. As to conditions: DEVD-pNA hydrolysis. As to the method: Purified recombinant caspase-1, caspase-3, caspase-6, caspase-7 or caspase-8 were incubated with DEVD-pNA, either alone or with a 10-fold to 50-fold molar excess of GST-XIAP ([…]) and substrate hydrolysis was measured. Purified active caspase concentrations ranged from 0.1 nM to 10 nM. XIAP concentration ranged from 0.1 nM to 500 nM. Assays were performed in caspase buffer (50 mM Tris, pH 7.4, 100 mM NaCl, 10% sucrose, 5–10 mM DTT, 1 mM EDTA and 0.1% CHAPS).
Equilibria were determined from progress curves when substrate hydrolysis reached a steady-state; slopes were calculated by curve fit analysis using the cricket graph program. Experiments were performed using purified recombinant caspase-3, caspase-6, or caspase-7. DEVD-AFC hydrolysis was measured using 0.1 nM caspase and a range of concentrations (0.2 to 12 μM) of recombinant XIAP (rXIAP). […] Average ratio velocities (vi/vo, where “vi” indicates presence of GST-XIAP and “vo” indicates absence of GST-XIAP) were determined.
Caspase activity was determined essentially as described in Example II, using the benzylyoxycarbonyl-DEVD-AFC (SEQ ID NO: 2) substrate and was assayed at 37° C. using the Perkin-Elmer LS50B fluorometric plate reader in the kinetic mode with excitation and emission wavelengths of 400 nm and 505 nm, respectively. […] Reactions were performed in caspase buffer (50 mM Hepes, 100 mM NaCl, 1 mM EDTA, 0.1% CHAPS, 10% sucrose, 5 mM DTT). The inhibition constant, Ki, was calculated as described (Zhou et al., supra, 1997). Immunoblot analysis was performed as described in Example I.B.3.

Experiment [7] deals with T2, caspase-7. The experiment is described as follows: Inhibition of purified recombinant caspase-7, DEVD substrate hydrolysis and progress curves. The format is biochemical. The note with it: DEVD-pNA hydrolysis.
Description: Purified recombinant caspase-1, caspase-3, caspase-6, caspase-7 or caspase-8 were incubated with DEVD-pNA, either alone or with a 10-fold to 50-fold molar excess of GST-XIAP (20 μM) and substrate hydrolysis was measured. Purified active caspase concentrations ranged from 0.1 nM to 10 nM. XIAP concentration ranged from 0.1 nM to 500 nM. Assays were performed in caspase buffer (50 mM Tris, pH 7.4, 100 mM NaCl, 10% sucrose, 5–10 mM DTT, 1 mM EDTA and 0.1% CHAPS).
For a further experiment, the target named is T3, caspase-6 (Homo sapiens, UniProt P55212).
T3 construct: Purified active caspase concentrations ranged from 0.1 nM to 10 nM; His6; made in house; host or cells: E. coli BL21(DE3)pLysS
T3 sequence (P55212 24-179 limits assumed): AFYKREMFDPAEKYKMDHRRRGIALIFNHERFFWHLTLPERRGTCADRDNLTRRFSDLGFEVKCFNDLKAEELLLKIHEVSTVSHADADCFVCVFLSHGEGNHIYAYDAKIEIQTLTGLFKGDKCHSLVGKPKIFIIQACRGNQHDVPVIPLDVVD
T3 sequence (P55212 194-293 limits assumed): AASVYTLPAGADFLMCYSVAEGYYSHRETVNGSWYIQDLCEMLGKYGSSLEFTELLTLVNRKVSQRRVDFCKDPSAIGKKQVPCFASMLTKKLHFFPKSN
In words: GST pull-down binding to caspase-6. The note with it: glutathione-Sepharose beads, immunoblot.

“Also recorded” adds a separate entry of the source. Where a SMILES comes first, the peptide text is derived from it. The star is where a group is joined. Cbz = O=C(OCc1ccccc1)*; CH2F = FC*

As to “GST-Bcl-2: recombinant control protein, GST fusion of Bcl-2 [reference compound]”, the apoptotic nuclei entry in [1] is “greater than 95%”. In addition, the “DEVD-pNA hydrolysis, ΔA405 after 15 min” value in [2] is on record as “≈ 0.1”. Moreover, in [3], the “DEVD-pNA hydrolysis, ΔA405 after 15 min” value was “≈ 0.09” and the “DEVD-pNA hydrolysis, ΔA405 after 20 min” value is “≈ 0.1”.
As to `CC(C)[C@H](NC(=O)OCc1ccccc1)C(=O)N[C@@H](C)C(=O)N[C@@H](CC(=O)O)C(=O)CF` [zVAD-fmk, N-benzyloxycarbonyl-Val-Ala-Asp fluoromethylketone, reference compound] (Cbz-Val-Ala-Asp-CH2F), in the experiment with 293T cells, the “apoptotic cells (PI staining) in Bax expressing cells” value was “about 5%”.

B1: c-IAP-1(BIR): construct comprising the BIR domains of c-IAP-1 (positions 1 to 350) (protein)
chain: MHKTASQRLFPGPSYQNIKSIMEDSTILSDWTNSNKQKMKYDFSCELYRMSTYSTFPAGVPVSERSLARAGFYYTGVNDKVKCFCCGLMLDNWKLGDSPIQKHKQLYPSCSFIQNLVSASLGSTSKNTSPMRNSFAHSLSPTLEHSSLFSGSYSSLSPNPLNSRAVEDISSSRTNPYSYAMSTEEARFLTYHMWPLTFLSPSELARAGFYYIGPGDRVACFACGGKLSNWEPKDDAMSEHRRHFPNCPFLENSLETLRFSISNLSMQTHAARMRTFMYWPSSVPVQPEQLASAGFYYVGRNDDVKCFCCDGGLRCWESGDDPWVEHAKWFPRCEFLIRMKGQEFVDEIQG
modifications: left off: a dimerising Fc or GST
B1: the “DEVD hydrolysis in activated 293 cell cytosolic extracts (in words)” value in experiment [2] is “inhibited DEVD hydrolysis”. Further, in the experiment with caspase-3 [4], the “binding of caspase-3 (in words)” value is listed as “bound”. Further, in the experiment with caspase-7 [5], the “binding of caspase-7 (in words)” value is “bound”.

B2: GST-CD40 cytosolic domain: recombinant control protein, GST fusion of CD40 cytosolic domain (protein)
chain: KKVAKKPTNKAPHPKQEPQEINFPDDLPGSNTAAPVQETLHGCQPVTQEDGKESRISVQERQ
modifications: not fully specified; also: GST fusion partner not in chain
For B2, the “inhibition of caspase-3 in vitro (in words)” value with caspase-3 [6] was “had no effect”. In addition, the “inhibition of caspase-7 in vitro (in words)” value with caspase-7 [7] is “had no effect”. Moreover, the “DEVD-pNA hydrolysis, ΔA405 after 15 min” value in experiment [2] is reported as “≈ 0.1”. Further, in experiment [3], the “DEVD-pNA hydrolysis, ΔA405 after 15 min” value is reported as “≈ 0.09” and the “DEVD-pNA hydrolysis, ΔA405 after 20 min” value is on record as “≈ 0.1”. For the same molecule, in the experiment with caspase-3 [4], the “binding of caspase-3 (in words)” value is reported as “No caspase binding was observed; also recorded: did not bind”. In the experiment with caspase-7 [5], the “binding of caspase-7 (in words)” value is reported as “No caspase binding was observed; also recorded: did not bind”. In the experiment with caspase-6, the “binding of caspase-6 (in words)” value was “No caspase binding was observed”.

B3: c-IAP-2(BIR): construct comprising the BIR domains of c-IAP-2 (positions 1 to 335) (protein)
chain: MNIVENSIFLSNLMKSANTFELKYDLSCELYRMSTYSTFPAGVPVSERSLARAGFYYTGVNDKVKCFCCGLMLDNWKRGDSPTEKHKKLYPSCRFVQSLNSVNNLEATSQPTFPSSVTNSTHSLLPGTENSGYFRGSYSNSPSNPVNSRANQDFSALMRSSYHCAMNNENARLLTFQTWPLTFLSPTDLAKAGFYYIGPGDRVACFACGGKLSNWEPKDNAMSEHLRHFPKCPFIENQLQDTSRYTVSNLSMQTHAARFKTFFNWPSSVLVNPEQLASAGFYYVGNSDDVKCFCCDGGLRCWESGDDPWVQHAKWFPRCEYLIRIKGQEFIRQVQ
modifications: left off: a dimerising Fc or GST
For the molecule B3, the “DEVD hydrolysis in activated 293 cell cytosolic extracts (in words)” value in [2] is “inhibited DEVD hydrolysis”. For the same molecule, in the experiment with caspase-3 [4], the “binding of caspase-3 (in words)” value is on record as “bound”. Also, the “binding of caspase-7 (in words)” value with caspase-7 [5] was “bound”.
